Assay results taken from patent US20210054094A1 (Hoffmann-La Roche, published 2021).

B1: P1AE5747 (antibody, V domains shown)
VH: QVQLVESGGGVVQPGRSLRLSCAASGFSFSNYGMAWVRQAPGKGLEWVASISTGGGNTYYADSVKGRFTISRDNSKNTLYLQMNSLRAEDTAVYYCTRHDRGGLYWGQGTMVTVSS
VL: DIVMTQSPDSLAVSLGERATINCKSSKSLLHSNGITYVYWYQQKPGQPPKLLIYRMSNLASGVPDRFSGSGSGTDFTLTISSLQAEDVAVYHCGQLLENPYTFGQGTKLEIK
B2: P1AE5743 (antibody, V domains shown)
VH: EVQLVESGGGVVQPGRSLRLSCAASGFSFSNYGMAWVRQAPGKGLEWVASISTGGGNTYYRDSVKGRFTISRDNAKNTLYLQMNSLRAEDTAVYYCTRHDRGGLYWGQGTMVTVSS
VL: EIVLTQSPGTLSLSPGERATLSCRASKSLLHSNGITYVYWYQQKPGQAPRLLIYRMSNLASGIPDRFSGSGSGTDFTLTISRLEPEDFAVYHCGQLLENPYTFGQGTKLEIK
B3: P1AE5753 (antibody, V domains shown)
VH: EVQLVESGGGVVQPGRSLRLSCAASGFSFSNYGMAWVRQAPGKGLEWVASISTGGGNTYYADSVKGRFTISRDNAKNTLYLQMNSLRAEDTAVYYCTRHDRGGLYWGQGTMVTVSS
VL: DIVMTQSPDSLAVSLGERATINCKSSKSLLHSNGITYVYWYQQKPGQPPKLLIYRMSNLASGVPDRFSGSGSGTDFTLTISSLQAEDVAVYHCGQLLENPYTFGQGTKLEIK
B4: P1AE5749 (antibody, V domains shown)
VH: QVQLVESGGGVVQPGRSLRLSCAASGFSFSNYGMAWVRQAPGKGLEWVASISTGGGNTYYADSVKGRFTISRDNSKNTLYLQMNSLRAEDTAVYYCTRHDRGGLYWGQGTMVTVSS
VL: EIVLTQSPGTLSLSPGERATLSCRASKSLLHSNGITYVYWYQQKPGQAPRLLIYRMSNLASGIPDRFSGSGSGTDFTLTISRLEPEDFAVYHCGQLLENPYTFGQGTKLEIK
B5: P1AE5763 (antibody, V domains shown)
VH: EVQLVESGGGLVQPGGSLRLSCAASGFSFSNYGMAWVRQAPGKGLEWVASISTGGGNTYYADSVKGRFTISRDNAKNTLYLQMNSLRAEDTAVYYCTRHDRGGLYWGQGTMVTVSS
VL: DIVMTQSPDSLAVSLGERATINCKSSKSLLHSNGITYVYWYQQKPGQPPKLLIYRMSNLASGVPDRFSGSGSGTDFTLTISSLQAEDVAVYHCGQLLENPYTFGQGTKLEIK
B6: P1AE5754 (antibody, V domains shown)
VH: EVQLVESGGGVVQPGRSLRLSCAASGFSFSNYGMAWVRQAPGKGLEWVASISTGGGNTYYADSVKGRFTISRDNAKNTLYLQMNSLRAEDTAVYYCTRHDRGGLYWGQGTMVTVSS
VL: EIVLTQSPGTLSLSPGERATLSCRASKSLLHSNGITYVYWYQQKPGQAPRLLIYRMSNLASGIPDRFSGSGSGTDFTLTISRLEPEDFAVYHCGQLLENPYTFGQGTKLEIK
B7: P1AE5738 (antibody, V domains shown)
VH: QVQLVESGGGVVQPGRSLRLSCAASGFSFSNYGMAWVRQAPGKGLEWVASISTGGGNTYYRDSVKGRFTISRDNSKNTLYLQMNSLRAEDTAVYYCTRHDRGGLYWGQGTMVTVSS
VL: EIVLTQSPGTLSLSPGERATLSCRASKSLLHSNGITYVYWYQQKPGQAPRLLIYRMSNLASGIPDRFSGSGSGTDFTLTISRLEPEDFAVYHCGQLLENPYTFGQGTKLEIK
B8: P1AE5758 (antibody, V domains shown)
VH: EVQLVESGGGLVQPGGSLRLSCAASGFSFSNYGMAWVRQAPGKGLEWVASISTGGGNTYYRDSVKGRFTISRDNAKNTLYLQMNSLRAEDTAVYYCTRHDRGGLYWGQGTMVTVSS
VL: DIVMTQSPDSLAVSLGERATINCKSSKSLLHSNGITYVYWYQQKPGQPPKLLIYRMSNLASGVPDRFSGSGSGTDFTLTISSLQAEDVAVYHCGQLLENPYTFGQGTKLEIK

Target: human GPRC5D (human, UniProt Q9NZD1 1-345)
Assay: cell-based or functional assay

Sequence of human GPRC5D (Q9NZD1 whole entry): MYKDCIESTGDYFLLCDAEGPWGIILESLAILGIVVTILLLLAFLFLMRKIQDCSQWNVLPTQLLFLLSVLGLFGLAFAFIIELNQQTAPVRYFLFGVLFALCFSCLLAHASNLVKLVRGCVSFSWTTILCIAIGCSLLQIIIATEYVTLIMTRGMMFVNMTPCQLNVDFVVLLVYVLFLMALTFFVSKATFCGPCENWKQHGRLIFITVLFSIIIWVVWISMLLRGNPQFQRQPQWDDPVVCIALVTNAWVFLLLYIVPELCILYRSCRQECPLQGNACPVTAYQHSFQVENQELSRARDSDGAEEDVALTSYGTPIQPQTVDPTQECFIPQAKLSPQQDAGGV

Binder	CAR-J2 EC50 (PGLALA-CAR-J activation, L363 target cells)
B1	0.183 mg/L
B2	0.583 mg/L
B3	0.03 mg/L
B4	0.0826 mg/L
B5	0.00547 mg/L
B6	0.00889 mg/L
B7	0.397 mg/L
B8	0.19 mg/L
